Source: publication PMC4329983 (Molecular imaging and biology : MIB : the official …, 2013)

How the values were obtained:
[1] = cited from earlier work
[2] = Biodistribution in AR42J tumor-bearing mice; format: in vivo; settings: mouse, in vivo
[3] = tested on: AR42J tumor bearing athymic nude mice; test: Biodistribution in AR42J tumor-bearing mice; format: in vivo
[4] = tested on: AR42J rat pancreatic cancer cells; test: Internalization studies of 68Ga-labeled conjugates in AR42J cells; format: cell-based; settings: 37 °C, 10-120 min, ~0.7 nM; reference 68Ga-DOTATOC; Fig. 2
[5] = cited from earlier work; remark: listed apart in the source

Molecule: O=C([O-])CN1CCN(CC(=O)[O-])CCN(CC(=O)O)CCN(CC(=O)[O-])CC1.[Ga+3] [DOTA-Ga(III)]
- log K (thermodynamic stability of the Ga(III) complex) [1]: 21.3

Molecule: O=C([O-])CN1CCN(CC(=O)[O-])CCN(CC(=O)[O-])CC1.[Ga+3] [NOTA-Ga(III)]
- log K (thermodynamic stability of the Ga(III) complex) [1]: 31.0

Molecule: C[C@@H](O)[C@@H]1NC(=O)[C@H](CCCCN)NC(=O)[C@@H](Cc2c[nH]c3ccccc23)NC(=O)[C@H](Cc2ccc(O)cc2)NC(=O)[C@@H](NC(=O)[C@@H](Cc2ccccc2)NC(=O)CCC(C(=O)O)N2CCN(CC(=O)O)CCN(CC(=O)O)CC2)CSSC[C@@H](C(=O)N[C@H](CO)[C@@H](C)O)NC1=O (stereo partly drawn) [^68Ga-1, metal not drawn]
- tissue uptake at 0.5 h ([2]; iv, kidney uptake): 22.8 ± 2.22 %ID/g
- tissue uptake at 2 h ([2]; iv, kidney uptake): 9.79 ± 1.9 %ID/g
- tissue uptake at 0.5 h ([2]; iv, liver uptake): 0.81 ± 0.09 %ID/g
- tissue uptake at 1 h ([2]; tumor uptake): 22.3 ± 3.22 %ID/g
- tissue uptake at 2 h ([2]; tumor uptake): 12.8 ± 4.65 %ID/g
- tumor retention rate ([3]; mouse, in vivo): 55%
- tumor/kidney ratio ([3]; mouse, in vivo): significantly higher
- tumor/liver ratio ([3]; mouse, in vivo): significantly higher

Molecule: C[C@@H](O)[C@@H]1NC(=O)[C@H](CCCCN)NC(=O)[C@@H](Cc2c[nH]c3ccccc23)NC(=O)[C@H](Cc2ccc(O)cc2)NC(=O)[C@@H](NC(=O)[C@@H](Cc2ccccc2)NC(=O)CCC(C(=O)O)N2CCN(CC(=O)O)CCN(C(CCC(=O)O)C(=O)O)CC2)CSSC[C@@H](C(=O)N[C@H](CO)[C@@H](C)O)NC1=O (stereo partly drawn) [^68Ga-2, metal not drawn]
- tissue uptake at 0.5 h ([2]; iv, kidney uptake): 18.2 ± 1.84 %ID/g
- tissue uptake at 2 h ([2]; iv, kidney uptake): 8.22 ± 2.29 %ID/g
- tissue uptake at 0.5 h ([2]; iv, liver uptake): 1.38 ± 0.11 %ID/g
- tissue uptake at 1 h ([2]; tumor uptake): 7.87 ± 0.41 %ID/g
- tissue uptake at 2 h ([2]; tumor uptake): 1.78 ± 0.15 %ID/g
- tumor retention rate ([3]; mouse, in vivo): 24%
- Internalization in AR42J cells (time course) [4]: significantly decreased

Molecule: C[C@@H](O)[C@@H]1NC(=O)[C@H](CCCCN)NC(=O)[C@@H](Cc2c[nH]c3ccccc23)NC(=O)[C@H](Cc2ccc(O)cc2)NC(=O)[C@@H](NC(=O)[C@@H](Cc2ccccc2)NC(=O)CCC(C(=O)O)N2CCN(C(CCC(=O)O)C(=O)O)CCN(C(CCC(=O)O)C(=O)O)CC2)CSSC[C@@H](C(=O)N[C@H](CO)[C@@H](C)O)NC1=O (stereo partly drawn) [^68Ga-3, metal not drawn]
- tissue uptake at 1 h ([2]; 5 µCi, tumor uptake, 1 h p.i., AR42J xenograft, n=4): 2.95 ± 0.62 %ID/g
- tissue uptake at 2 h ([2]; 5 µCi, tumor uptake, 2 h p.i., AR42J xenograft, n=4): 0.83 ± 0.1 %ID/g
- tissue uptake at 0.5 h ([2]; iv, 5 µCi, kidney uptake, 30 min p.i., n=4): 13.8 ± 2.22 %ID/g
- tissue uptake at 2 h ([2]; iv, 5 µCi, kidney uptake, 2 h p.i., n=4): 5.24 ± 1.03 %ID/g
- tissue uptake at 0.5 h ([2]; iv, 5 µCi, liver uptake, 30 min p.i., n=4): 0.51 ± 0.05 %ID/g
- tumor/stomach ratio ([3]; 1 h p.i., vs 68Ga-DOTATOC, 68Ga-NO2ATOC and 68Ga-2 (P<0.01), Fig. 5): significantly higher
- tumor retention rate ([3]; 2 h p.i.): 19%
- retention of the initial kidney uptake ([3]; 2 h p.i. relative to 30 min p.i.): less than 52%
- Internalization in AR42J cells (time course) [4]: negligible

Molecule: C[C@@H](O)[C@@H]1NC(=O)[C@H](CCCCN)NC(=O)[C@@H](Cc2c[nH]c3ccccc23)NC(=O)[C@H](Cc2ccc(O)cc2)NC(=O)[C@@H](NC(=O)[C@@H](Cc2ccccc2)NC(=O)CN2CCN(CC(=O)O)CCN(CC(=O)O)CCN(CC(=O)O)CC2)CSSC[C@@H](C(=O)N[C@H](CO)[C@@H](C)O)NC1=O [^68Ga-DOTATOC, metal not drawn, reference compound]
- tissue uptake at 0.5 h ([2]; iv, kidney uptake): 11.3 ± 2.07 %ID/g
- tissue uptake at 2 h ([2]; iv, kidney uptake): 7.33 ± 1.28 %ID/g
- tissue uptake at 0.5 h ([2]; iv, liver uptake): 0.74 ± 0.18 %ID/g
- tissue uptake at 2 h ([2]; iv, liver uptake): 4.37 ± 0.2 %ID/g
- tissue uptake at 1 h ([2]; tumor uptake): 13.5 ± 6.28 %ID/g

Molecule: SST-14: physiological form of somatostatin, natural SSTR ligand
- biological half-life [5]: 2–4 min

Molecule: SST-28: physiological form of somatostatin, natural SSTR ligand
- biological half-life [5]: 2–4 min
